Some results are limits rather than exact numbers.

By EC50 is commonly meant the concentration at which the effect is half-maximal. The low end stands for higher potency in that assay, the high end for lower potency in that assay.

The target in data set [1] is T1, ARG2 (Homo sapiens, UniProt P78540).
T1 sequence (P78540 23-354): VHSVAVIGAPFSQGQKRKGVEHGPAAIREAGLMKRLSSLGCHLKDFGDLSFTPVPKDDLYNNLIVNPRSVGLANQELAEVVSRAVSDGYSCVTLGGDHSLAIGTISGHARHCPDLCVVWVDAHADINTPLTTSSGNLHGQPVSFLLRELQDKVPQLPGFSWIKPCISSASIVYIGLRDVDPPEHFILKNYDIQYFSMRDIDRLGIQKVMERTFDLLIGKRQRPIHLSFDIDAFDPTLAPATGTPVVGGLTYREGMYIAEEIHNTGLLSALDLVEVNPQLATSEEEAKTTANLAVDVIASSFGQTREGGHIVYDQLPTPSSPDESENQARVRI
As to the kind of experiment: Dynamic light scattering of ARG2-Fab complex sizes. Set-up: human ARG2 (aa23-354); His10 (C); made in house; host or cells: E. coli BL21 (DE3). The note with it: FIG. 23B. On the procedure: ARG2 and Fabs were analysed at concentrations of 8 μM (referring to monomers) in buffer containing 25 mM tris at pH 7.4 and 150 mM NaCl (FIG. 23). ARG2-Fab complexes were formed by mixing both ARG2 and Fabs at concentrations of 8 μM (referring to monomers) and incubation on ice for 1 h. Dynamic light scattering (DLS) was performed on a Zetasizer Ultra (Malvern Panalytical) using multiangle DLS. Data was collected in a 3×3 mm cuvette (Hellma Analytics) using a sample volume of 30 μl. Volume weighted size-distributions were corrected for refractive index, viscosity, and background scatter of the buffer by the instrument software.

Data set [2] concerns the target T1, ARG2. As to the kind of experiment: T cell proliferation assay (BrdU, 72 hours) with exogenous ARG2. In kind it is cell-based. The settings on record: In Absence of rhARG2. As to the method:
This assay served to provide in vitro evidence of functional efficacy for each antibody.
Briefly, Leukocyte cones (NHS Blood and Transplant, Watford, UK) underwent Ficoll Plaque (GE, Sweden; Cat: 17-1440-02) gradient separation, PBMC's were extracted and pan T cell population isolated by negative selection using the Human T Cell Enrichment Kit (Stemcell Technologies, France; Cat: 19051) according to the manufacturer's instructions.
40000 cells/well were seeded in complete growth media (RMPI 1640, 5% Human Serum Albumin) into a 96 well clear TC treated microplate (Greiner-Bio One, Germany; Cat: 655180). T Cells were activated by the addition of ImmunoCult CD3/CD28 (Stemcell Technologies, France; Cat: 10971) at a dilution of 1:40 directly into wells and the plate incubated 37° C., 5% CO2 for 45 minutes.
To determine EC50's of test antibodies, a dilution series was created in sterile TBS at 8× the final assay concentration was added to the assay plate containing cells. Plate was incubated for 30 minutes at 37° C., 5% CO2.
ARG2 was added to relevant wells of the plate at a final concentration of 15 μg/ml. The equivalent volume of ARG2 vehicle and test antibody vehicle was added to relevant control wells. […]
Calculated data was expressed as % of control (Equation 3) and graphical plots were constructed using a four parameter fit and EC50's determined using model 205 in XLFit (IDBS, UK). […]

B1: C0021139: anti-ARG2 antibody, VH SEQ ID NO: 212, VL SEQ ID NO: 217 (antibody, listed as Homo sapiens, V domains shown)
VH: EVQLLESGGGLVQPGGSLRLSCAASGFTFQYDYQVWVRQAPGKGLEWVSAISGSGGSTYYADSVKGRFTISRDNSKNTLYLQMNSLRAEDTAVYYCARLRADLGLYMDLWGRGTLVTVSS
VL: QSVLTQPPSVSAAPGQKVTISCSGSSSNIGNHYVSWYQQLPGTAPKLLIYDNSERTSGIPDRFSGSKSGTSATLGITGLQTGDEADYYCGTWDELTSNLVFGGGTKLTVL
modifications: C0021139
For B1, the “increase in average hydrodynamic radius (Rh) of ARG2-Fab complexes in comparison with ARG2-C0020187 Fab complexes” value with ARG2 [1] was 1.5 nm.

B2: C0020065: anti-ARG2 antibody, alternate lead isolation clone, VH SEQ ID NO: 2, VL SEQ ID NO: 7 (antibody, listed as Homo sapiens, V domains shown)
VH: GVNLRESGGGVVQPGRSLRLSCAASGFTFSSYAMHWVRQAPGKGLEWVAVISYDGSNKYYVDSVKGRFTISRDNSKNTLYLQMNSLRAEDTAVYYCARDSSQLWFDYWGRGTLVTVSS
VL: QSVVTQPPSVSGAPGQRVTISCTGSSSNIGTGYDVHWYQQLPGTAPKLLIYGNSNRPSGVPDRFSGSKSGTSASLAITGLQAEDEADYYCQSYDSSLSGSVVFGGGTQLTVL
modifications: C0020065
On to B2, for which, in the data set with ARG2 [2], the concentration giving a half-maximal response (EC50) is under 0.8 nM and the “Maximum % Proliferation” value was determined as 82%.

The record behind these values is patent US20220403048A1, “BINDING MOLECULES TO ARGINASE II [ARG2]” (Cancer Research Technology Limited, priority 2019, published 2022).
